Data on 1 protein can be found in article PMC2646873 (Biochemistry, 2008).

This data set concerns the molecule itself. The experiment in a line: crystal structure.

B1: CysM (Rv1336) (enzyme)
chain: MTRYDSLLQALGNTPLVGLQRLSPRWDDGRDGPHVRLWAKLEDRNPTGSIKDRPAVRMIEQAEADGLLRPGATILEPTSGNTGISLAMAARLKGYRLICVMPENTSVERRQLLELYGAQIIFSAAEGGSNTAVATAKELAATNPSWVMLYQYGNPANTDSHYCGTGPELLADLPEITHFVAGLGTTGTLMGTGRFLREHVANVKIVAAEPRYGEGVYALRNMDEGFVPELYDPEILTARYSVGAVDAVRRTRELVHTEGIFAGISTGAVLHAALGVGAGALAAGERADIALVVADAGWKYLSTGAYAGSLDDAETALEGQLWA
Turning to B1, the “stoichiometry N” value was 2.
